# What was measured:
# [1] = target: human CD83 on the cell surface (KM-H2, L428, FDCP1 and BB88 cells transfected with full length human CD83) (human) (UniProt Q01151); test: flow cytometry on the CD83+ cell line KM-H2, background control
# [2] = target: human CD83 on the cell surface (KM-H2, L428, FDCP1 and BB88 cells transfected with full length human CD83) (human) (UniProt Q01151); test: competition by flow cytometry on KM-H2 cells, antibodies added at the same time; reduction of the 3C12-RPE signal in the presence of HB15a-FITC
# Sequence of human CD83 on the cell surface (KM-H2, L428, FDCP1 and BB88 cells transfected with full length human CD83) (human) (Q01151 20-205): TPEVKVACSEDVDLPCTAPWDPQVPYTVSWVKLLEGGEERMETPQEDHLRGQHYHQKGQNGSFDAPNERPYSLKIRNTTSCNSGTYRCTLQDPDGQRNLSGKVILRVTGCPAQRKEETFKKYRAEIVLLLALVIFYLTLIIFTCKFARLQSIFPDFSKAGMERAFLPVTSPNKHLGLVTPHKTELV
Substance,MFI [1] [MFI],Reduction in 3C12 MFI (%) [2] [%]
isotype control (human IgG1) (antibody),335,
"HB15a (commercial anti-human CD83 mAb, Immunotech) (antibody)",,24.7
